Substitutions are numbered along the chain they refer to. Values belong to the molecule of their own block, whether it stands above or below them.
Legend:
[1] = biological target: T1, 23A SMARCAD1, dephosphorylated (human) (UniProt Q9H4L7); test: fluorescence polarization; details: FP: 50 mM HEPES pH 7.5, 2 mM DTT, 10% glycerol, 0.01% CHAPS, 0.01% NP-40, no added salt stated, room temperature 30 min, 10 nM nucleosome or DNA, 0-5 uM …
T1 sequence: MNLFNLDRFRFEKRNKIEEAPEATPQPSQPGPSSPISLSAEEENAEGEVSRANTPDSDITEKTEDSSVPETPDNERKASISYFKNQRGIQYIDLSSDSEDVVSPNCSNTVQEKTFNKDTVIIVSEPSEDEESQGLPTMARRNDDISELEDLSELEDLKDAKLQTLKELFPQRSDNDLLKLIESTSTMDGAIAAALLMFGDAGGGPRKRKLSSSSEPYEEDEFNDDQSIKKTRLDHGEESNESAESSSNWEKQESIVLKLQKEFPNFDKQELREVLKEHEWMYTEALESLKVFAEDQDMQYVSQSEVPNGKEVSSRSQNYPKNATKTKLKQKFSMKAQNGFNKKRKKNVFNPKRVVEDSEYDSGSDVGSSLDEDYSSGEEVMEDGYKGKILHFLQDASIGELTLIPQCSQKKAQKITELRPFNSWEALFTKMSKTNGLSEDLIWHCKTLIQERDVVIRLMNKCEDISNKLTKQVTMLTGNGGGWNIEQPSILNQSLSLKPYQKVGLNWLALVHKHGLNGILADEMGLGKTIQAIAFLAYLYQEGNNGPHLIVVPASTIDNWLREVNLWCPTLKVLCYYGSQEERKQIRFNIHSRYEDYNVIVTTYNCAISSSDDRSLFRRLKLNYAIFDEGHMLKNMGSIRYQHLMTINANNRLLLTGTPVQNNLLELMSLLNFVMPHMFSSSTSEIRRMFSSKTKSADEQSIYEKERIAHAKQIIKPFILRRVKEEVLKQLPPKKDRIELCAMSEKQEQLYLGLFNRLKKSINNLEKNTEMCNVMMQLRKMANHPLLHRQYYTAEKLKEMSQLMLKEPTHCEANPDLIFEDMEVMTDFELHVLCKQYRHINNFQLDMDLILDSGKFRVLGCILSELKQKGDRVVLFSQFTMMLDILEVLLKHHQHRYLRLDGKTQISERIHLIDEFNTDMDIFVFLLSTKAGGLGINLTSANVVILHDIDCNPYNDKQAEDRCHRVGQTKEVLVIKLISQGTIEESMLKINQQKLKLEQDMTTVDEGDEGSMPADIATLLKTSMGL

[2] = biological target: T2, 23A SMARCAD1, phosphorylated (human) (UniProt Q9H4L7); test: fluorescence polarization; details: FP: 50 mM HEPES pH 7.5, 2 mM DTT, 10% glycerol, 0.01% CHAPS, 0.01% NP-40, no added salt stated, room temperature 30 min, 10 nM nucleosome or DNA, 0-5 uM …
T2 sequence: T1 sequence

[3] = biological target: nucleosome: histone octamer with Alexa Fluor 488 on histone H4 E63C assembled onto a 165 bp DNA (human) (UniProt P04908)
[4] = biological target: (H3-H4)2 tetramer (fluorescently labeled with Alexa Fluor 488 on H4 at E63C) (human) (UniProt P68431); test: fluorescence polarisation; 5 nM Alexa Fluor 488-labeled H2A-H2B dimer or (H3-H4)2 tetramer, SMARCAD1 titrated 0-2500 nM; 2 mM DTT, 10% glycerol, 50 mM HEPES pH 7.5, 0.01% CHAPS, 0.01% NP-40, 300 mM KCl; room temperature, 30 min; hyperbolic fit
[5] = biological target: T3, Δ350 SMARCAD1, dephosphorylated V974A;del1-350 (human) (UniProt Q9H4L7); test: fluorescence polarization; details: FP: 50 mM HEPES pH 7.5, 2 mM DTT, 10% glycerol, 0.01% CHAPS, 0.01% NP-40, no added salt stated, room temperature 30 min; 10 nM nucleosome or DNA, 0-5 uM …
T3 sequence: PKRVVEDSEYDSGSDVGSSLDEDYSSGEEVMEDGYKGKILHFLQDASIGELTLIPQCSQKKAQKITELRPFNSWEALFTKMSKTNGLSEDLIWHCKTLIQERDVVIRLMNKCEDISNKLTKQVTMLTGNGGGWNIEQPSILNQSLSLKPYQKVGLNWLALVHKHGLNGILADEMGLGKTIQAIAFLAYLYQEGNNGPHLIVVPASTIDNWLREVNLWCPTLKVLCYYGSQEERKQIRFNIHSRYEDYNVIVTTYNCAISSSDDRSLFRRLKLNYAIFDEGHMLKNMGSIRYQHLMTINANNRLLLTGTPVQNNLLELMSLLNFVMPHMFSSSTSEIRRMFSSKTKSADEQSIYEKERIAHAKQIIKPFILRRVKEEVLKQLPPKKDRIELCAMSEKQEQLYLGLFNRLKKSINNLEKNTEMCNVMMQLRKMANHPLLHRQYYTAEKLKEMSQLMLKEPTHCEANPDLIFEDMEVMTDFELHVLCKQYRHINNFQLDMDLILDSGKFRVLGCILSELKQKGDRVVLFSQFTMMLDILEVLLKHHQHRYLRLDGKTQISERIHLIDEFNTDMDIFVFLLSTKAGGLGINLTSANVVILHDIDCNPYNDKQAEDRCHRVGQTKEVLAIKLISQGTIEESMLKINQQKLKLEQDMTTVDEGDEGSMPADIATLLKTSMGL

[6] = biological target: nucleosome: histone octamer with Alexa Fluor 488 on histone H4 E63C assembled onto a 165 bp DNA (human) (UniProt P04908); test: fluorescence polarisation; 10 nM Alexa Fluor 488-labeled nucleosome (165 bp DNA), SMARCAD1 titrated 0-5 μM; 2 mM DTT, 10% glycerol, 50 mM HEPES pH 7.5, 0.01% CHAPS, 0.01% NP-40; room temperature, 30 min; hyperbolic fit
[7] = biological target: T4, Δ350 SMARCAD1, dephosphorylated (human, UniProt Q9H4L7 351-1026, V974A;del1-350); test: fluorescence polarization; dephosphorylated (CIP); FP: 50 mM HEPES pH 7.5, 2 mM DTT, 10% glycerol, 0.01% CHAPS, 0.01% NP-40, no added salt stated, room temperature 30 min; 10 nM nucleosome or DNA, 0-5 uM SMARCAD1; details: protein: recombinant; tags: 6xHis; label: Alexa Fluor 488 and Alexa Fluor 647 (labeled PCR primers); blunt
T4 sequence: T3 sequence

[8] = biological target: T5, WT SMARCAD1, dephosphorylated (human, UniProt Q9H4L7 1-1026, V974A); test: as above; details: protein: recombinant; tags: 6xHis (C- or N-terminal); label: Alexa Fluor 488 and Alexa Fluor 647 (labeled PCR primers); blunt
T5 sequence: T1 sequence with V974A

Molecule: CGAGCCAGGCCTGAGAATCCGGTGCCGAGGCCGCTCAATTGGTCGTAGACAGCTCTAGCACCGCTTAAACGCACGTACGCGCTGTCCCCCGCGTTTTAACCGCCAAGGGGATTACTCCCTAGTCTCCAGGCACGTGTCAGATATATACATCCAGGCCTTGTGTCG (double strand) [165 bp 601 DNA]
Kd [1]: 28 nM
Kd [2]: 49 nM

ATP hydrolysis rate with nucleosome as activator (1 μM SMARCAD1, 1 μM nucleosome; NADH-coupled assay) [3]: 118 nM/s
Kd [4]: 495 nM
Molecule: phosphorylated Δ350 SMARCAD1 (from UniProt Q9H4L7 351-1026) (domain or fragment)

ATP hydrolysis rate with nucleosome as activator (1 μM SMARCAD1, 1 μM nucleosome; NADH-coupled assay) [3]: 30 nM/s
Kd [4]: 151 nM
Molecule: phosphorylated wild type SMARCAD1 (from UniProt Q9H4L7 1-1026) (enzyme)

Molecule: CGAGCCAGGCCTGAGAATCCGGTGCCGAGGCCGCTCAATTGGTCGTAGACAGCTCTAGCACCGCTTAAACGCACGTACGCGCTGTCCCCCGCGTTTTAACCGCCAAGGGGATTACTCCCTAGTCTCCAGGCACGTGTCAGATATATACATCCAGGCCTTGTGTCG (double strand) [165 bp 601 nucleosome (7N11)]
Kd ([1]; dephosphorylated (CIP)): 71 nM
Kd ([2]; phosphorylated): 213 nM
Kd [5]: 114 nM

Kd [6]: 114 nM
Molecule: dephosphorylated Δ350 SMARCAD1 (from UniProt Q9H4L7 351-1026) (domain or fragment)

B1: 165 bp 601 DNA (dsDNA)
DNA 1: CGAGCCAGGCCTGAGAATCCGGTGCCGAGGCCGCTCAATTGGTCGTAGACAGCTCTAGCACCGCTTAAACGCACGTACGCGCTGTCCCCCGCGTTTTAACCGCCAAGGGGATTACTCCCTAGTCTCCAGGCACGTGTCAGATATATACATCCAGGCCTTGTGTCG
DNA 2: CGACACAAGGCCTGGATGTATATATCTGACACGTGCCTGGAGACTAGGGAGTAATCCCCTTGGCGGTTAAAACGCGGGGGACAGCGCGTACGTGCGTTTAAGCGGTGCTAGAGCTGTCTACGACCAATTGAGCGGCCTCGGCACCGGATTCTCAGGCCTGGCTCG
Kd [7]: 60 ± 18 nM
Kd [8]: 26 ± 9 nM
